# T1: human IL-36R on cells (human, UniProt Q9HB29 20-575)
# T1 sequence (looked up): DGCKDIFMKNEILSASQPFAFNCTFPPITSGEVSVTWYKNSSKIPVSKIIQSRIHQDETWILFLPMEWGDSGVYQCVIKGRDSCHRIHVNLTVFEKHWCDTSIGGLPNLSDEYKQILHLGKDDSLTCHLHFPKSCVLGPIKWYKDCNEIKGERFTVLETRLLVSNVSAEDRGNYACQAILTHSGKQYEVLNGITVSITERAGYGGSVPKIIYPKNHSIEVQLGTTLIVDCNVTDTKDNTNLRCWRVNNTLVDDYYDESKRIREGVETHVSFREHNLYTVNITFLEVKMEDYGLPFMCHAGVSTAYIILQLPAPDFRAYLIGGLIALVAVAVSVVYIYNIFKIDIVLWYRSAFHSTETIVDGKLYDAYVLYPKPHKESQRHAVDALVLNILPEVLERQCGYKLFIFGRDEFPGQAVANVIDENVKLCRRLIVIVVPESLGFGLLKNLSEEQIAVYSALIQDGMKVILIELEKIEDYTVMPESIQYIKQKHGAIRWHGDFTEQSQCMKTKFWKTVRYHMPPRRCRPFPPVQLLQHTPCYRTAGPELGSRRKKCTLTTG
# T2: recombinant human IL-36R (ECD) (human, UniProt Q9HB29 20-332)
# T2 construct: range 20-332; also called IL-1RL2; IL-1Rrp2
# T2 sequence (looked up): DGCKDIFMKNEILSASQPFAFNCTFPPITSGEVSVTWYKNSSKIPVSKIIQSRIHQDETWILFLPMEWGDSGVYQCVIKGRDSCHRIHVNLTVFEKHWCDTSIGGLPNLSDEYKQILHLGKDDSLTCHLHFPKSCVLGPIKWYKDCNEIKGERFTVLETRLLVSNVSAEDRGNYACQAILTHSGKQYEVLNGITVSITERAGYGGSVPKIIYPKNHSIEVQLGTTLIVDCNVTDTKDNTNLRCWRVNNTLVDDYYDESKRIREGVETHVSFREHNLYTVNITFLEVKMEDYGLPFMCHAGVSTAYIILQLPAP
# T3: mouse IL-36R (mouse, UniProt Q9ERS7 22-338)
# T3 sequence (looked up): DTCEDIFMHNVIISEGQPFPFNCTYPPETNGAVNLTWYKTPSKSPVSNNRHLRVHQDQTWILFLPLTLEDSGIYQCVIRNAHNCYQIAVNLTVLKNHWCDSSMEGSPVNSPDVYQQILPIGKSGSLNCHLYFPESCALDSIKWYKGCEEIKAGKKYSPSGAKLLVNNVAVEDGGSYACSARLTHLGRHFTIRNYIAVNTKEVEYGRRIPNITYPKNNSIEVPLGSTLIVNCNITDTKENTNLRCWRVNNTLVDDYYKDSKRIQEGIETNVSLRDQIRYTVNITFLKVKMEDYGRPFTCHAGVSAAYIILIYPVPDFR
# T4: human IL-1R1 (human, UniProt P14778 18-336, limits assumed)
# T4 construct: also called IL-1RI
# T4 sequence (looked up): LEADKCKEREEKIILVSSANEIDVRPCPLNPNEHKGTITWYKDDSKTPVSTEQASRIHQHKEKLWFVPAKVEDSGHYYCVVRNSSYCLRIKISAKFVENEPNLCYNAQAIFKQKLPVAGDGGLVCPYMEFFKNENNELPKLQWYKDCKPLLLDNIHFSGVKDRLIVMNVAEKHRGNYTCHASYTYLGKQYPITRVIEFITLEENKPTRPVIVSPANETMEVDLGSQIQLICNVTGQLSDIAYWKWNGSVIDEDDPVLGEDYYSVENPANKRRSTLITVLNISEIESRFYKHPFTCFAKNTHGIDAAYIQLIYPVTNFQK
# B1: antibody 78C8 (antibody, V domains shown)
# VH: QVQLKESGPVLVAPSQSLSITCTVSGFSLTKFGVHWIRQTPGKGLEWLGVIWAGGPTNYNSALMSRLTISKDISQSQVFLRIDSLQTDDTAMYYCAKQIYYSTLVDYWGQGTSVTVSS
# VL: DVLLTQTPLSLPVSLGDQASISCRSSQNIVHSNGNTYLQWYLQKPGQSPKLLIYKVSNRFSGVPDRFSGSGSGTDFTLKISRVEAEDLGVYYCFQGSHVPFTFGAGTKLELK
# notes: Mouse monoclonal from hybridoma; also called 78C8D1; Mouse 78C8
# B2: antibody 81B4 (antibody, V domains shown)
# VH: QVQLQQPGADFVRPGASMRLSCKASGYSFTSSWIHWVKQRPGQGLEWIGEINPGNVRTNYNENFRNKATLTVDKSSTTAYMQLRSLTSADSAVYYCTVVFYGEPYFPYWGQGTLVTVSA
# VL: QIVLTQSPAIMSASLGERVTMTCTASSSVSSSYFHWYQQKPGSSPKLWIYRTSNLASGVPGRFSGSGSGTSYSLTISSMEAEDAATYYCHQFHRSPLTFGAGTKLELK
# notes: Mouse monoclonal from hybridoma; also called 81B4E11; Mouse 81B4
# B3: antibody 73F6 (antibody, V domains shown)
# VH: QVQLKESGPGLVAPSQSLSITCTVSGFSLTNYAVHWVRQFPGKGLEWLGVIWSDGSTDYNAPFKSRLSINKDNSKSQVFFKMNSLQTDDTAIYYCARKGGYSGSWFAYWGQGTLVTVSA
# VL: DIVMTQSQKFLSTSVGVRVSVTCKASQDVGTNVLWYQQKIGQSPKALIYSASYRHSGVPDRFTGSGSGTDFTLIITNVQSEDLAEYFCQQYSRYPLTFGPGTKLELK
# notes: Mouse monoclonal from hybridoma; also called 73F6F8; Mouse 73F6
# Target: T1, human IL-36R on cells
# Experiment: cell-based or functional assay
Binder,"IC90, GM-CSF release, NCI/ADR-RES cells, trun-IL-36a","IC90, GM-CSF release, NCI/ADR-RES cells, trun-IL-36b","IC90, GM-CSF release, NCI/ADR-RES cells, trun-IL-36g","IC90, IL-6 release, NCI/ADR-RES cells, trun-IL-36a","IC90, IL-6 release, NCI/ADR-RES cells, trun-IL-36b","IC90, IL-6 release, NCI/ADR-RES cells, trun-IL-36g","IC90, IL-8 release, NCI/ADR-RES cells, trun-IL-36a","IC90, IL-8 release, NCI/ADR-RES cells, trun-IL-36b","IC90, IL-8 release, NCI/ADR-RES cells, trun-IL-36g","IC90, pNFκB, NCI/ADR-RES cells, trun-IL-36a"
B1,7.1 nM,2 nM,1.7 nM,14 nM,5.8 nM,1.3 nM,4.7 nM,1.1 nM,1.4 nM,5.8 nM
B2,0.8 nM,0.3 nM,0.4 nM,0.8 nM,0.3 nM,0.2 nM,0.7 nM,0.2 nM,0.3 nM,1.7 nM
B3,5.9 nM,1.7 nM,1.4 nM,19 nM,5.1 nM,2.2 nM,3.2 nM,0.8 nM,0.9 nM,2.8 nM

# Same assay, conditions: not given
Binder,"IC90, pNFκB, NCI/ADR-RES cells, trun-IL-36b","IC90, pNFκB, NCI/ADR-RES cells, trun-IL-36g"
B1,6.8 nM,4.6 nM
B2,1.4 nM,1.2 nM
B3,3 nM,1.5 nM

# Target: cynomolgus IL-36R on BaF/3 cells (cynomolgus, UniProt A0A2K5WSK9 20-558)
# Experiment: cell-based or functional assay
# Sequence of cynomolgus IL-36R on BaF/3 cells (A0A2K5WSK9 entry or part of it): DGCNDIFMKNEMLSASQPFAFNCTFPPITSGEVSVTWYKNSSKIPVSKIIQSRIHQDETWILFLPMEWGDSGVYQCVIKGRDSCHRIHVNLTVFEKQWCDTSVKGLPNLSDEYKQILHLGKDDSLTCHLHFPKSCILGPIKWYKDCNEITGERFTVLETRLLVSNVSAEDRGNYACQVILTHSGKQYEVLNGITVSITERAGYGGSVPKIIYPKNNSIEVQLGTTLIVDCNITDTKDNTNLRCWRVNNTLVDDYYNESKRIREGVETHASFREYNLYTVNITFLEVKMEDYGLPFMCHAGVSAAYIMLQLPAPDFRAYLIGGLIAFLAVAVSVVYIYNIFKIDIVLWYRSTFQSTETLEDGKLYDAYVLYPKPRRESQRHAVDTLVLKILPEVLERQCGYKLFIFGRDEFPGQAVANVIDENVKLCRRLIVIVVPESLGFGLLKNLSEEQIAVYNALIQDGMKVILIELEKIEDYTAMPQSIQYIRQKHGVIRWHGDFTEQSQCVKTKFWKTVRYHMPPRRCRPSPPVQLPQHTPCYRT
Binder,"IC90, pNFκB, BaF/3 cynomolgus IL-36R cells, trun-IL-36a","IC90, pNFκB, BaF/3 cynomolgus IL-36R cells, trun-IL-36b","IC90, pNFκB, BaF/3 cynomolgus IL-36R cells, trun-IL-36g"
B1,1 nM,2.1 nM,1.5 nM
B2,2.4 nM,3.5 nM,5.1 nM
B3,0.5 nM,0.7 nM,0.8 nM

# Target: T1, human IL-36R on cells
# Experiment: cell-based or functional assay
# Remark: another data set of the same source
Binder,"IC90, IL-8 release, human primary keratinocytes (NHK), trun-IL-36a","IC90, IL-8 release, human primary keratinocytes (NHK), trun-IL-36b","IC90, IL-8 release, human primary keratinocytes (NHK), trun-IL-36g","IC90, pNFκB, human primary keratinocytes (NHK), trun-IL-36a","IC90, pNFκB, human primary keratinocytes (NHK), trun-IL-36b","IC90, pNFκB, human primary keratinocytes (NHK), trun-IL-36g"
B1,19.3 nM,34 nM,3.6 nM,11.6 nM,14.2 nM,10.6 nM
B2,0.7 nM,1.2 nM,0.5 nM,1.3 nM,1.1 nM,0.5 nM
B3,17.8 nM,26 nM,2.1 nM,8.2 nM,5.2 nM,1.3 nM

# Target: T2, recombinant human IL-36R (ECD)
# Experiment: SPR (ProteOn), single IL-36R surface coat concentration
# Protocol: A) Kinetics and binding affinities of anti-IL-36R antibodies binding to recombinant human IL-36R were measured using the Proteon (Bio-Rad, Hercules, Calif.) using material generated from hybridoma following single column purification. […] Binding of the chimeric anti-IL36R IgGs is equivalent to the respective mouse leads.
row,Binder,Kd
1,B1,< 0.1 nM
2,B2,< 0.1 nM
3,B3,< 0.1 nM

# Target: T3, mouse IL-36R
# Experiment: BLI (Fortebio Octet), antibody injected over antigen surface
# Protocol: (§1) B) Molecular selectivity over mouse IL-36R and human IL-1R1 The mouse and chimeric anti-IL-36R antibodies were also injected over either a mouse IL-36R or a human IL-1R1 surface at a concentration of 100 nM. The binding signal to mouse IL-36R and to human IL-1R1 for these antibodies measured using the Fortebio Octet (Fortebio, Menlo Park, Calif.) is zero, which indicates these antibodies selectively bind to human IL-36R.
row,Binder,binding result
1,B1,no binding (tested: 100 nM)
2,B2,no binding (tested: 100 nM)
3,B3,no binding (tested: 100 nM)

# Target: T4, human IL-1R1
# Experiment: as above
# Protocol: as §1
row,Binder,binding result
1,B1,no binding (tested: 100 nM)
2,B2,no binding (tested: 100 nM)
3,B3,no binding (tested: 100 nM)

# Target: T1, human IL-36R on cells
# Experiment: flow cytometry, HEK293 cells transfected with full-length human IL-36R
# Protocol: HEK293 cells transfected with full-length human IL-36R or NCI/ADR-RES cells were passaged for 24 hours prior to staining. Cells were removed from flasks by rinsing with 10 ml of 5 mM EDTA in PBS, and then incubated at 37° C. for 10 min with an additional 10 ml of 5 mM EDTA and 2.5 ml of Accumax to declump/disperse cells. Antibodies were then diluted to specified concentrations in PBS+2% BSA, and cells incubated for 20 min at room temperature. Excess antibody was then washed by adding 200 μl of PBS and then centrifuged. Secondary reagent was then added at 50 μl per well and cells are incubated for 15 min at room temperature and then washed as above. Cells were resuspended in 200 μl PBS and analyzed by flow cytometry.
row,Binder,EC50
1,B1,0.529 nM
2,B2,0.302 nM
3,B3,0.746 nM

# Target: T2, recombinant human IL-36R (ECD)
# Experiment: SPR (ProteOn), recombinant human IL-36R at 7 surface densities, global fit
# Protocol: A) Kinetics and binding affinities of anti-IL-36R antibodies binding to recombinant human IL-36R were measured using the Proteon (Bio-Rad, Hercules, Calif.) using material generated from hybridoma following single column purification. […] The binding affinities of the mouse antibodies to human IL-36R run at 7 different surface densities (globally fit) is shown in Table 1. Binding of the chimeric anti-IL36R IgGs is equivalent to the respective mouse leads.
row,Binder,Kd
1,B1,0.063 nM
2,B2,0.024 nM
3,B3,0.025 nM

# From patent publication US20200231684A1 (published 2020)
